Laboratory results published in US20240400693A1 (Chugai, published 2024).
Numbering of substitutions follows the chain as printed. Like-named read-outs stand apart in the source and are kept apart here.

Key:
[1] = target: HLA-DQ2.5 on IHW09023 cells loaded with gamma 2 gliadin peptide (human; wheat); test: cell-based or functional assay
[2] = target: HLA-DQ2.5 on IHW09023 cells loaded with gamma 4d gliadin peptide (human; wheat); test: cell-based or functional assay
[3] = target: HLA-DQ2.5 on IHW09023 cells loaded with gamma 4a gliadin peptide (human; wheat); test: cell-based or functional assay
[4] = target: HLA-DQ2.5 on IHW09023 cells loaded with BC hordein peptide (human; barley); test: cell-based or functional assay
[5] = target: HLA-DQ2.5 on IHW09023 cells loaded with gamma 3 gliadin peptide (human; wheat); test: cell-based or functional assay
[6] = target: HLA-DQ2.5 on IHW09023 cells loaded with 33mer gliadin peptide (human; wheat); test: cell-based or functional assay
[7] = target: HLA-DQ2.5 on IHW09023 cells loaded with gamma 1 gliadin peptide (human; wheat); test: cell-based or functional assay
[8] = target: HLA-DQ2.5 on IHW09023 cells loaded with omega1/2 gliadin peptide (human; wheat); test: cell-based or functional assay
[9] = target: T1, HLA-DQ7.5 on Ba/F3 cells (human, UniProt P01909 24-216; P01920 33-230, limits assumed); test: FACS, Ba/F3 cells; %MFI: IC17dK 0, DQN0139bb 100
T1 construct: whole, on cells; also called Ba/F3-HLA-DQ7.5

[10] = target: T2, HLA-DQ2.2 on Ba/F3 cells (human, UniProt P01909 24-216, limits assumed); test: FACS, Ba/F3 cells; %MFI: IC17dK 0, DQN0139bb 100
T2 construct: whole, on cells; also called Ba/F3-HLA-DQ2.2
T2 MHC II alpha: not shown
T2 MHC II beta: not shown

[11] = target: T3, HLA-DQ2.5 on Ba/F3 cells (human, UniProt P01909 24-216, limits assumed); test: FACS, Ba/F3 cells; %MFI: IC17dK 0, DQN0139bb 100
T3 construct: whole, on cells; MHC class II without fused peptide; also called Ba/F3-HLA-DQ2.5

[12] = target: T4, HLA-DQ8 on Ba/F3 cells (human, UniProt P01909 24-216; P01920 33-230, limits assumed); test: FACS, Ba/F3 cells; %MFI: IC17dK 0, DQN0139bb 100
T4 construct: whole, on cells; also called Ba/F3-HLA-DQ8
T4 MHC II alpha: not shown
T4 MHC II beta: not shown

[13] = target: T5, HLA-DQ7.3 on Ba/F3 cells (human, UniProt P01909 24-216; P01920 33-230, limits assumed); test: FACS, Ba/F3 cells; %MFI: IC17dK 0, DQN0139bb 100
T5 construct: whole, on cells; also called Ba/F3-HLA-DQ7.3
T5 MHC II alpha: not shown
T5 MHC II beta: not shown

[14] = target: T6, HLA-DP on Ba/F3 cells (human, UniProt P20036 29-222; P04440 30-225, limits assumed); test: FACS, Ba/F3 cells; raw MFI
T6 construct: whole, on cells; also called Ba/F3-HLA-DP
T6 sequence (P20036 29-222 limits assumed, chain 1 of 4, other chains not shown): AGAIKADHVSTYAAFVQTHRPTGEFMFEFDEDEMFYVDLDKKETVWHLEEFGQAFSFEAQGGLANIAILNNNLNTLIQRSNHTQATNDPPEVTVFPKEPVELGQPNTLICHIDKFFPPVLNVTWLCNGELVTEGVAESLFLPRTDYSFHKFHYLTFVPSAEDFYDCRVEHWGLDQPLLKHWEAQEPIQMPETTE
T6 sequence (P04440 30-225 limits assumed, chain 2 of 4, other chains not shown): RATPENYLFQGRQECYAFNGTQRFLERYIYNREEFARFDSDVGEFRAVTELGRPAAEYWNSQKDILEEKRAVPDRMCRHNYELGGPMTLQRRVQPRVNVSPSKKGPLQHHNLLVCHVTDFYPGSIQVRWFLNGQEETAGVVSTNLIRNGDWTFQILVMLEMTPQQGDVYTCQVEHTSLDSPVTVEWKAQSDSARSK

[15] = target: T7, HLA-DQ5.1 on Ba/F3 cells (human, limits assumed); test: FACS, Ba/F3 cells; raw MFI
T7 construct: whole, on cells; also called Ba/F3-HLA-DQ5.1
T7 MHC II alpha: not shown
T7 MHC II beta: not shown

[16] = target: T8, HLA-DR on Ba/F3 cells (human, UniProt P01903 26-216; P79483 30-227, limits assumed); test: FACS, Ba/F3 cells; raw MFI
T8 construct: whole, on cells; also called Ba/F3-HLA-DR
T8 MHC II alpha: not shown
T8 MHC II beta: not shown

[17] = target: T9, HLA-DQ6.3 on Ba/F3 cells (human, UniProt P01920 33-230, limits assumed); test: FACS, Ba/F3 cells; raw MFI
T9 construct: whole, on cells; also called Ba/F3-HLA-DQ6.3
T9 MHC II alpha: not shown
T9 MHC II beta: not shown

[18] = target: T1, HLA-DQ7.5 on Ba/F3 cells; test: FACS, Ba/F3 cells; %MFI: IC17dK 0, DQN0139bb 100; remark: listed apart in the source
[19] = target: T2, HLA-DQ2.2 on Ba/F3 cells; test: FACS, Ba/F3 cells; %MFI: IC17dK 0, DQN0139bb 100
[20] = target: T3, HLA-DQ2.5 on Ba/F3 cells; test: FACS, Ba/F3 cells; %MFI: IC17dK 0, DQN0139bb 100; remark: listed apart in the source
[21] = target: T4, HLA-DQ8 on Ba/F3 cells; test: FACS, Ba/F3 cells; %MFI: IC17dK 0, DQN0139bb 100
[22] = target: T5, HLA-DQ7.3 on Ba/F3 cells; test: FACS, Ba/F3 cells; %MFI: IC17dK 0, DQN0139bb 100
[23] = target: T1, HLA-DQ7.5 on Ba/F3 cells; test: FACS, Ba/F3 cells; %MFI: IC17dK 0, DQN0139bb 100; remark: listed apart in the source
[24] = target: T2, HLA-DQ2.2 on Ba/F3 cells; test: FACS, Ba/F3 cells; %MFI: IC17dK 0, DQN0139bb 100
[25] = target: T3, HLA-DQ2.5 on Ba/F3 cells; test: FACS, Ba/F3 cells; %MFI: IC17dK 0, DQN0139bb 100; remark: listed apart in the source
[26] = target: T4, HLA-DQ8 on Ba/F3 cells; test: FACS, Ba/F3 cells; %MFI: IC17dK 0, DQN0139bb 100
[27] = target: T5, HLA-DQ7.3 on Ba/F3 cells; test: FACS, Ba/F3 cells; %MFI: IC17dK 0, DQN0139bb 100

B1: DQN0344H1013/L0620//DQN0385H1270/L0722-F6 (bispecific antibody)
heavy 1: QVQLVESGGGVVQPGRSLRLSCAASGFTFSSAYWMVWVRQAPGQGLEWMGAVYGGSDTTYYAKWTEGRFTISRDTSKNTLYLQMNSLRAEDTAVYYCAREPLNYYYYGELNVWGQGTLVTVSSASTKGPSVFPLAPSSKSTSGGTAALGCLVKDYFPEPVTVSWNSGALTSGVHTFPAVLKSSGLYSLSSVVTVPSSSLGTQTYICNVNHKPSNTKVDKRVEPKSCDKTHTCPPCPAPELRRGPSVFLFPPKPKDTLMISRTPEVTCVVVDVSHEDPEVKFNWYVDGVEVHNAKTKPREEQYNSTYRVVSVLTVLHQDWLNGKEYKCKVSNKALPAPIEKTISKAKGQPREPQVYTLPPSREEMTKNQVSLTCLVKGFYPSDIAVEWESNGQPENNYKTTPPYLDSDGSFFLYSKLTVDKSRWQEGNVFSCSVLHEALHAHYTREELSLSP
light 1: DIQMTQSPSSLSASVGDRVTITCQATENIYSGLAWYQQKPGKAPKLLIYYVSTLAYGIPARFSGSGSGTDFTLTISSLEPEDFAVYYCQTYEDVSAVTFGQGTKVEIKRTVAAPSVFIFPPSDEQLKSGTAEVVCLLNNFYPREAKVQWKVDNALQSGNSEESVTEQDSKDSTYSLSSTLTLSKADYEKHKVYACEVTHQGLSSPVTKSFNRGEC
heavy 2: QVQLVESGGGVVQPGRSLRLSCAASGFTFSEWYFMSWVRQAPGKGLEWVASIDTGSGSIDYAEWVEGRFTISRDNSKNTLYLQMNSLRAEDTAVYYCARDIGIDYNFWGPGTLVTVSSASTKGPSVFPLAPSSKSTSGGTAALGCLVEDYFPEPVTVSWNSGALTSGVHTFPAVLESSGLYSLSSVVTVPSSSLGTKTYICNVNHKPSNTKVDKRVEPKSCDKTHTCPPCPAPELRRGPSVFLFPPKPKDTLMISRTPEVTCVVVDVSHEDPEVKFNWYVDGVEVHNAKTKPREEQYNSTYRVVSVLTVLHQDWLNGKEYKCKVSNKALPAPIEKTISKAKGQPREPQVYTLPPSRKEMTKNQVSLTCLVKGFYPSDIAVEWESNGQPENNYKTTPPYLDSDGSFFLYSKLTVDKSRWQQGNVFSCSVLHEALHAHYTRKELSLSP
light 2: DIQMTQSPSSLSASVGDRVTITCQTTQSISSYLNWYQQKPGQPPKLLIYYASTKAEGIPARFSGSGLGTDFTLTISSLQPEDFAVYYCHYGISKVSFGQGTKVEIKRTVAAPSVFIFPPSDEQLKSGTAKVVCLLNNFYPREAKVQWKVDNALQSGNSKESVTEQDSKDSTYSLSSTLTLSKADYEKHKVYACEVTHQGLSSPVTKSFNRGEC
[1]
  IC50 (ng/mL), γ2 gliadin TCR, 250 nM γ2 gliadin: 277 ng/mL
[2]
  IC50 (ng/mL), γ4d gliadin TCR, 100 µM γ4d gliadin: 10.1 ng/mL
[3]
  IC50 (ng/mL), γ4a gliadin TCR, 25 µM γ4a gliadin: 1150 ng/mL
[4]
  IC50 (ng/mL), BC hordein TCR, 250 nM BC hordein: 9.7 ng/mL
[5]
  IC50 (ng/mL), γ3 gliadin TCR, 100 µM γ3 gliadin: 3.31 ng/mL
[6]
  IC50 (ng/mL), α1a gliadin TCR, 250 nM 33mer gliadin: 0.27 ng/mL
  IC50 (ng/mL), α1b gliadin TCR, 250 nM 33mer gliadin: 1.25 ng/mL
  IC50 (ng/mL), α2 gliadin TCR, 250 nM 33mer gliadin: 0.33 ng/mL
[7]
  IC50 (ng/mL), γ1 gliadin TCR, 250 nM γ1 gliadin: 1.03 ng/mL
[8]
  IC50 (ng/mL), ω1 gliadin TCR, 25 µM ω1/2 gliadin: 2.17 ng/mL
  IC50 (ng/mL), ω2 gliadin TCR, 250 nM ω1/2 gliadin: 0.22 ng/mL
[9]
  binding result: no binding (tested: 0.05 micro g/mL)
[10]
  binding result: no binding (tested: 0.05 micro g/mL)
[11]
  binding result: no binding (tested: 0.05 micro g/mL)
[12]
  binding result: no binding (tested: 0.05 micro g/mL)
[13]
  binding result: no binding (tested: 0.05 micro g/mL)
[14]
  binding result: no binding (tested: 0.05 micro g/mL)
[15]
  binding result: no binding (tested: 0.05 micro g/mL)
[16]
  binding result: no binding (tested: 0.05 micro g/mL)
[17]
  binding result: no binding (tested: 0.05 micro g/mL)

B2: DQN0344H1013/L0620//DQN0385H1352/L0681-F6 (bispecific antibody)
heavy 1: B1 heavy 1
light 1: B1 light 1
heavy 2: B1 heavy 2 with T28E
light 2: B1 light 2 with Q79E
[1]
  IC50 (ng/mL), γ2 gliadin TCR, 250 nM γ2 gliadin: 279 ng/mL
[2]
  IC50 (ng/mL), γ4d gliadin TCR, 100 µM γ4d gliadin: 3.15 ng/mL
[3]
  IC50 (ng/mL), γ4a gliadin TCR, 25 µM γ4a gliadin: 1730 ng/mL
[4]
  IC50 (ng/mL), BC hordein TCR, 250 nM BC hordein: 11.6 ng/mL
[5]
  IC50 (ng/mL), γ3 gliadin TCR, 100 µM γ3 gliadin: 3.15 ng/mL
[6]
  IC50 (ng/mL), α1a gliadin TCR, 250 nM 33mer gliadin: 0.26 ng/mL
  IC50 (ng/mL), α1b gliadin TCR, 250 nM 33mer gliadin: 1.13 ng/mL
  IC50 (ng/mL), α2 gliadin TCR, 250 nM 33mer gliadin: 0.38 ng/mL
[7]
  IC50 (ng/mL), γ1 gliadin TCR, 250 nM γ1 gliadin: 1.71 ng/mL
[8]
  IC50 (ng/mL), ω1 gliadin TCR, 25 µM ω1/2 gliadin: 1.88 ng/mL
  IC50 (ng/mL), ω2 gliadin TCR, 250 nM ω1/2 gliadin: 0.27 ng/mL
[18]
  binding result: no binding (tested: 0.05 micro g/mL)
[19]
  binding result: no binding (tested: 0.05 micro g/mL)
[20]
  binding result: no binding (tested: 0.05 micro g/mL)
[21]
  binding result: no binding (tested: 0.05 micro g/mL)
[22]
  binding result: no binding (tested: 0.05 micro g/mL)
[14]
  binding result: no binding (tested: 0.05 micro g/mL)
[15]
  binding result: no binding (tested: 0.05 micro g/mL)
[16]
  binding result: no binding (tested: 0.05 micro g/mL)
[17]
  binding result: no binding (tested: 0.05 micro g/mL)

B3: DQN0344H1013/L0620//DQN0385H1521/L0605-F6 (bispecific antibody)
heavy 1: B1 heavy 1
light 1: B1 light 1
heavy 2: B1 heavy 2 with S30E, E31S
light 2: B1 light 2 with L67S, Q79E
[1]
  IC50 (ng/mL), γ2 gliadin TCR, 250 nM γ2 gliadin: 853 ng/mL
[2]
  IC50 (ng/mL), γ4d gliadin TCR, 100 µM γ4d gliadin: 13 ng/mL
[3]
  IC50 (ng/mL), γ4a gliadin TCR, 25 µM γ4a gliadin: 1350 ng/mL
[4]
  IC50 (ng/mL), BC hordein TCR, 250 nM BC hordein: 8.98 ng/mL
[5]
  IC50 (ng/mL), γ3 gliadin TCR, 100 µM γ3 gliadin: 1.4 ng/mL
[6]
  IC50 (ng/mL), α1a gliadin TCR, 250 nM 33mer gliadin: 0.28 ng/mL
  IC50 (ng/mL), α1b gliadin TCR, 250 nM 33mer gliadin: 1.76 ng/mL
  IC50 (ng/mL), α2 gliadin TCR, 250 nM 33mer gliadin: 0.33 ng/mL
[7]
  IC50 (ng/mL), γ1 gliadin TCR, 250 nM γ1 gliadin: 0.68 ng/mL
[8]
  IC50 (ng/mL), ω1 gliadin TCR, 25 µM ω1/2 gliadin: 1.91 ng/mL
[14]
  binding result: no binding (tested: 0.05 micro g/mL)
[15]
  binding result: no binding (tested: 0.05 micro g/mL)
[16]
  binding result: no binding (tested: 0.05 micro g/mL)
[17]
  binding result: no binding (tested: 0.05 micro g/mL)
[23]
  binding result: no binding (tested: 0.05 micro g/mL)
[24]
  binding result: no binding (tested: 0.05 micro g/mL)
[25]
  binding result: no binding (tested: 0.05 micro g/mL)
[26]
  binding result: no binding (tested: 0.05 micro g/mL)
[27]
  binding result: no binding (tested: 0.05 micro g/mL)
